Earlier results, collected in publication PMC10673186.

Molecular target: SIRPα (Homo sapiens) (UniProt P78324)
UniProt P78324, sequence (P78324 31-373): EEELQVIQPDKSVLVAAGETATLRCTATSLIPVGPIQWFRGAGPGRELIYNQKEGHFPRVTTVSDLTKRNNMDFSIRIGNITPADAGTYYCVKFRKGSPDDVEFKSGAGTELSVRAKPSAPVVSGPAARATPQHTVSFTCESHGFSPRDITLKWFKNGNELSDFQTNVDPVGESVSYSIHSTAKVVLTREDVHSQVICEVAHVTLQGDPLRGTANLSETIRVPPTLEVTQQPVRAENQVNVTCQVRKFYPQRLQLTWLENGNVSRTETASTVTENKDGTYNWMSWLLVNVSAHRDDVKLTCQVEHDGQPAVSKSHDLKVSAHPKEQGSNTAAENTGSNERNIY

For CD47 (from UniProt Q08722), the Kd is given as 1000 nM.
